Measurements: IntAct's records for PubMed 22212508

Experiments:
hdgr2_mouse Hdgfl2 = hdgr2_mouse Hdgfl2 (UniProt Q3UMU9)

Measured: effect of a mutation on the interaction

Hepatoma-derived growth factor (Mus musculus), P51859 S165A, sequence (P51859 whole entry S165A): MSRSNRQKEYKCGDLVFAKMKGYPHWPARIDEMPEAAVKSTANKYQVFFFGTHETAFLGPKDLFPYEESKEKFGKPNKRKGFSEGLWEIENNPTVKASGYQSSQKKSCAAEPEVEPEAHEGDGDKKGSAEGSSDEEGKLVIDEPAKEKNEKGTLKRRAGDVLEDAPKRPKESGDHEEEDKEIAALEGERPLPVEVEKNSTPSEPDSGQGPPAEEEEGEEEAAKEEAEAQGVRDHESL
q3umu9-1, Q3UMU9-1, sequence (Q3UMU9 whole entry): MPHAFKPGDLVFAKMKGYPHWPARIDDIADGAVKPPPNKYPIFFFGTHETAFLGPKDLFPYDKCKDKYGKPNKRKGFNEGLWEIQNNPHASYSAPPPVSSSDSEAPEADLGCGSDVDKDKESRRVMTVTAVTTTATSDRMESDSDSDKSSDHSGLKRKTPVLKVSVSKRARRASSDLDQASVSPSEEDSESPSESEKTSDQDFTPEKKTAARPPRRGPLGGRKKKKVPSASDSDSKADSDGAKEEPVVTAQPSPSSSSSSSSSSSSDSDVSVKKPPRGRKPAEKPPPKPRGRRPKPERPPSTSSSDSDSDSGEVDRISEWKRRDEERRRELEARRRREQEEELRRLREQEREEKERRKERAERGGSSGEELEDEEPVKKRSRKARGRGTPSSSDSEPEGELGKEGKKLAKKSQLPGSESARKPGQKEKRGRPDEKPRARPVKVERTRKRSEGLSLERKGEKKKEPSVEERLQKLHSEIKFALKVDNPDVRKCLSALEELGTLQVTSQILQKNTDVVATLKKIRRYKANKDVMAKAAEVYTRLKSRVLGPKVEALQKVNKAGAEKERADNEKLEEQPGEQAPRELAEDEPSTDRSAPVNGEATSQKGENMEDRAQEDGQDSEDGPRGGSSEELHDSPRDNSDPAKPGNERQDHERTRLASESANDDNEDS
hdgr2_mouse Hdgfl2, sequence (Q3UMU9 whole entry): as above
q3umu9-3, Q3UMU9-3, sequence (Q3UMU9 other isoform, or with tags, fused parts or gaps): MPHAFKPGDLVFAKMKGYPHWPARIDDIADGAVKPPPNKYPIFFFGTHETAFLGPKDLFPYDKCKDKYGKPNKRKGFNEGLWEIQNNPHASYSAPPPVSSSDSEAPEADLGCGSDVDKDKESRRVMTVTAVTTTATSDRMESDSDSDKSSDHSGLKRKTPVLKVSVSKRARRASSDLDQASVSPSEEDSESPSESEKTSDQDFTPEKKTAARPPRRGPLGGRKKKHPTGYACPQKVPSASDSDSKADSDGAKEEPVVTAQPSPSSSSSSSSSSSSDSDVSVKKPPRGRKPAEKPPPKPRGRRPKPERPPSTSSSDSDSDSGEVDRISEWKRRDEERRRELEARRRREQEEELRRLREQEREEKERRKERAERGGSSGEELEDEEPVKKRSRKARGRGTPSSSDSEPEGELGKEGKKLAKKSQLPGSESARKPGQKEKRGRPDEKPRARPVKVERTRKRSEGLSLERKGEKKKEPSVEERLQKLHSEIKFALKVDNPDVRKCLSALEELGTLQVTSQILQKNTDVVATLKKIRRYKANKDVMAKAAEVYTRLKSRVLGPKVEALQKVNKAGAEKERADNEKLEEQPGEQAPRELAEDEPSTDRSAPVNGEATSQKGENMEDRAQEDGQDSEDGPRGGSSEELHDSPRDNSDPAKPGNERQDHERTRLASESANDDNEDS

Hepatoma-derived growth factor (Mus musculus), P51859 S165A
increasing interaction: hdgr2_mouse Hdgfl2 | q3umu9-3, Q3UMU9-3 | q3umu9-1, Q3UMU9-1
